Source: patent US20230265164A1 (MIT, published 2023)

Tests used:
IL8 = biological target: T1, IL8 (UniProt P10145 28-99, limits assumed); experiment: MicroScale Thermophoresis; 5 nM NT647-labeled receptor-Fc against a ligand gradient, 25 C
T1 sequence (looked up): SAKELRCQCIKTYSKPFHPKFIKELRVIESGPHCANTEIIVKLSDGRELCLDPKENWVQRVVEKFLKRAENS
Description: (§1) MicroScale Thermophoresis (MST) is an optical method detecting changes in thermophoretic movement and TRIC of the protein-attached fluorophore upon ligand binding. Active labelled proteins contribute to the thermophoresis signal upon ligand binding. […] Herein ligand binding experiments were carried out with 5 nM NT647-labeled protein in 1×PBS, 10 mM DTT buffer with different concentration of arginine, against a gradient of respective ligands on a Monolith NT.115 pico instrument at 25° C. Synthesized receptors were labeled with Monolith NT™ 2nd generation protein labeling kit RED-NHS (NanoTemper Technologies) so as to obtain unique fluorescent signals. MST time traces were recorded and analyzed to obtain the highest possible signal-to-noise levels and amplitudes, >5 Fnorm units. The recorded fluorescence was plotted against the concentration of ligand, and curve fitting was performed using the Kd fit formula derived from the law of mass action. For clarity, binding graphs of each independent experiment were normalized to the fraction bound (0=unbound, 1=bound). MST experiments were performed in the Center for Macromolecular Interactions at Harvard Medical School.

CCL25 = biological target: T2, CCL25 (UniProt O15444 24-150, limits assumed); experiment: as above
T2 sequence (looked up): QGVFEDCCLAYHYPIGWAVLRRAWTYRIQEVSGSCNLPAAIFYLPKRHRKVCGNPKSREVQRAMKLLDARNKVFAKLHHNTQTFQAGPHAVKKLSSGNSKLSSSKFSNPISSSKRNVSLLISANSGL
Description: as §1

B1: CXCR2^QTY-Fc (Fc fusion)
chain: MEDFNMESDSFEDFWKGEDLSNYSYSSTLPPFLLDAAPCEPESLEINKYYTTTTYAQTYQQSQQGNSQTMQTTQYSRVGRSVTDTYQQNQAQADQQYAQTQPTWAASKVNGWIFGTFLCKTTSQQKETNYYSGTQQQACTSTDRYLAIVHATRTLTQKRYLVKYTCQSTWGQSQQQAQPTQQYRRTVYSSNVSPACYEDMGNNTANWRMQQRTQPQSYGYTQPQQTMQYCYGFTLRTLFKAHMGQKHRAMRTTYATTQTYQQCWQPYNQTQQADTLMRTQVIQETCERRNHIDRAQDATETQGTQHSCQNPQTYAYTGQKFRHGLLKILAIHGLISKDSLPKDSRPSFVGSSSGHTSTTLTETSQVAPAHHHHHHHHHHGSKLVDPRGPTIKPCPPCKCPAPNLLGGPSVFIFPPKIKDVLMISLSPIVTCVVVDVSEDDPDVQISWFVNNVEVHTAQTQTHREDYNSTLRVVSALPIQHQDWMSGKEFKCKVNNKDLPAPIERTISKPKGSVRAPQVYVLPPPEEEMTKKQVTLTCMVTDFMPEDIYVEWTNNGKTELNYKNTEPVLDSDGSYFMYSKLRVEKKNWVERNSYSCSVVHEGLHNHHTTKSFSRTPGK
modifications: NT647 (RED-NHS) fluorescent dye on lysines/N-terminus in the MST assay; positions not given.
notes: also called CXCR29QTY-Fc
Kd (IL8): 60.3 nM

B2: CCR9^QTY-Fc (Fc fusion)
chain: MTPTDFTSPIPNMADDYGSESTSSMEDYVNFNFTDFYCEKNNVRQFASHYQPPQYWQTYTTGAQGNSQTTQTYWYCTRVKTMTDMYQQNQATADQQYQTTQPYWATAAADQWKFQTFMCKTTNSMYKMNYYSCTQQTMCTSTDRYTATAQAMRAHTWREKRQQYSKMTCYTTWTQAAAQCTPETQYSQIKEESGIAICTMVYPSDESTKQKSATQTQKTTQGYYQPYTTMACCYTTTTHTQTQAKKSSKHKAQKTTTTTQTTYTQSQYPYNCTQQTQTTDAYAMFISNCATSTNTDTCYQTTQTTAYYHSCQNPTQYTYTGERFRRDLVKTLKNLGCISQAQWVSFTRREGSLKLSSMLLETTSGALSLTETSQVAPAHHHHHHHHHHTETSQVAPAHHHHHHHHHHGSKLVDPRGPTIKPCPPCKCPAPNLLGGPSVFIFPPKIKDVLMISLSPIVTCVVVDVSEDDPDVQISWFVNNVEVHTAQTQTHREDYNSTLRVVSALPIQHQDWMSGKEFKCKVNNKDLPAPIERTISKPKGSVRAPQVYVLPPPEEEMTKKQVTLTCMVTDFMPEDIYVEWTNNGKTELNYKNTEPVLDSDGSYFMYSKLRVEKKNWVERNSYSCSVVHEGLHNHHTTKSFSRTPGK
modifications: NT647 (RED-NHS) fluorescent dye on lysines/N-terminus in the MST assay; positions not given.
Kd (CCL25): 37.2 nM
